Laboratory results taken from patent US20030039970, “Method for prognosing cancer and the proteins involved” (published 2003).
Where a chain is given by its changes, count along the chain named.

B1: T-wt (T-box ACTTTA) (dsDNA)
DNA 1: GTCTGTCTGGATCCGAGGTGAGTACTGACTTTACACACGTCTTCCGAAGCTTACGTCGCG
DNA 2: CGCGACGTAAGCTTCGGAAGACGTGTGTAAAGTCAGTACTCACCTCGGATCCAGACAGAC
B2: T-mut (dsDNA)
DNA 1: B1 DNA 1 with T30G
DNA 2: B1 DNA 2 with A31C

Experiments:
TRAITS (TID-1/U19) [1] = target: T1, TRAITS (TID-1/U19) (Rattus norvegicus, UniProt Q811X5 SEQ:1-262); assay: EMSA; complex competed by 5x, 25x, 125x cold T-wt; poly[dI-dC] present; conditions: tags: GST fusion (pGEX-2T, E. coli); label: 32P 5' end
T1 sequence (Q811X5 whole entry, the tested form may be a part): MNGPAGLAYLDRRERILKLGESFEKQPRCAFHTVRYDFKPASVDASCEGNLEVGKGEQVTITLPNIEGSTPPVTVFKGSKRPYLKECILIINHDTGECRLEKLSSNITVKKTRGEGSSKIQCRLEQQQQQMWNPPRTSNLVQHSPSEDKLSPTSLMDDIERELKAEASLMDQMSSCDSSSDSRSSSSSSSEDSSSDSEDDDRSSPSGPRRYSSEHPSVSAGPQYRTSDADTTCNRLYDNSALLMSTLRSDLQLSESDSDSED
From the text: (§1) The binding of GST-TRAITS fusion protein to labeled T-box containing DNA forms a DNA-protein complex (C), which can be competed in the presence of indicated fold (5×, 25×, or 125×) molar excess of cold T-wt but not by cold T-mut (ACTgTA). A non-specific complex (*) in the presence of GST-TRAITS was also formed in the presence of GST only. Labeled free DNA (F) was also indicated. […] NIH3T3 cells were transiently transfected with empty vector (PM) or vectors expressing the full-length rat TRAITS (residues 1-262 of SEQ ID NO: 14), its N-terminal (residues 1-113 of SEQ ID NO: 14), or its C-terminal (residues 114-262 of SEQ ID NO: 14) plus pG5CAT reporter and pSV-β-gal for normalization. Assays were performed after 24 hours of transfection. The fold activation of CAT reporter is shown with S.E.M. Assays were performed in triplicate in two separate experiments.
(§2) T-wt: (5′-[…] GAAGCTTACGTCGCG-3′ SEQ ID NO: 33) and T-mut: (5′-[…] CGAAGCTTACGTCGCG-3′ SEQ ID NO: 34) were synthesized and amplified by PCR. T4 polynucleotide kinase (Promega) was used to label T-wt & T-mut by [γ-³²P] ATP (NEN). Recombinant GST-TRAITS fusion protein was incubated with […] poly [dI-dC] and EMSA was performed according to the protocol provided by Gel Shift Assay System (Promega).

TRAITS (TID-1/U19) [2] = target: T1, TRAITS (TID-1/U19); assay: competition; cold T-mut up to 125x molar excess does not compete for labeled T-wt complex; legend prints ACTgTA but sequence has ACGTTA; conditions: tags: GST fusion (pGEX-2T, E. coli)
From the text: as §1, §2

Binder	binding result (TRAITS (TID-1/U19) [1])	binding result (TRAITS (TID-1/U19) [2])
B1	binds	–
B2	–	no binding
